Results reported in patent publication US20110166329A1.

Experiments:
[1] = molecular target: human serum amyloid P component (SAP) (human) (UniProt P02743); assay: IRMA; SAP non-covalently immobilised; antibody at 1 µg/ml; radiolabelled sheep polyvalent anti-mouse IgG
[2] = molecular target: human serum amyloid P component (SAP) (human) (UniProt P02743); assay: IRMA; SAP non-covalently immobilised; antibody at 10 µg/ml; radiolabelled sheep polyvalent anti-mouse IgG
[3] = molecular target: human serum amyloid P component (SAP) (human) (UniProt P02743); assay: IRMA; SAP non-covalently immobilised; antibody at 100 µg/ml; radiolabelled sheep polyvalent anti-mouse IgG
[4] = molecular target: human serum amyloid P component (SAP) (human) (UniProt P02743); assay: IRMA; SAP non-covalently immobilised; antibody at 0.1 µg/ml; radiolabelled sheep anti-mouse IgG2a
[5] = molecular target: human serum amyloid P component (SAP) (human) (UniProt P02743); assay: IRMA; SAP non-covalently immobilised; antibody at 10 µg/ml; radiolabelled sheep anti-mouse IgG2a
[6] = molecular target: human serum amyloid P component (SAP) (human) (UniProt P02743); assay: IRMA; SAP non-covalently immobilised; antibody at 0.001 µg/ml; radiolabelled sheep anti-mouse IgG2a
[7] = molecular target: human serum amyloid P component (SAP) (human) (UniProt P02743); assay: IRMA; SAP non-covalently immobilised; antibody at 100 µg/ml; radiolabelled sheep anti-mouse IgG2a
[8] = molecular target: human serum amyloid P component (SAP) (human) (UniProt P02743); assay: IRMA; SAP non-covalently immobilised; antibody at 1 µg/ml; radiolabelled sheep anti-mouse IgG2a
[9] = molecular target: human SAP complexed with CPHPC and covalently cross linked with BS3 (human) (UniProt P02743); assay: IRMA; SAP-CPHPC complex covalently immobilised; in calcium; radiolabelled sheep anti-mouse IgG; mean n=3
[10] = molecular target: human serum amyloid P component (SAP) (human) (UniProt P02743); assay: IRMA; SAP non-covalently immobilised; antibody at 0.01 µg/ml; radiolabelled sheep polyvalent anti-mouse IgG
[11] = molecular target: human serum amyloid P component (SAP) (human) (UniProt P02743); assay: Biacore; isolated pure SAP alone immobilised on the chip
[12] = molecular target: human serum amyloid P component (SAP) (human) (UniProt P02743); assay: IRMA; SAP alone covalently immobilised; in EDTA; radiolabelled sheep anti-mouse IgG; mean n=3
[13] = molecular target: human serum amyloid P component (SAP) (human) (UniProt P02743); assay: IRMA; SAP non-covalently immobilised; antibody at 0.1 µg/ml; radiolabelled sheep polyvalent anti-mouse IgG
[14] = molecular target: human SAP complexed with CPHPC and covalently cross linked with BS3 (human) (UniProt P02743); assay: IRMA; SAP-CPHPC complex captured on immobilised sheep polyclonal anti-human SAP; in calcium; radiolabelled sheep anti-mouse IgG; mean n=3
[15] = molecular target: human serum amyloid P component (SAP) (human) (UniProt P02743); assay: IRMA; SAP non-covalently immobilised; antibody at 0.01 µg/ml; radiolabelled sheep anti-mouse IgG2a
[16] = molecular target: human serum amyloid P component (SAP) (human) (UniProt P02743); assay: IRMA; SAP alone captured on immobilised sheep polyclonal anti-human SAP; in calcium; radiolabelled sheep anti-mouse IgG; mean n=3
[17] = molecular target: human serum amyloid P component (SAP) (human) (UniProt P02743); assay: IRMA; SAP alone covalently immobilised; in calcium; radiolabelled sheep anti-mouse IgG; mean n=3
[18] = molecular target: human SAP complexed with CPHPC and covalently cross linked with BS3 (human) (UniProt P02743); assay: IRMA; SAP-CPHPC complex covalently immobilised; in EDTA; radiolabelled sheep anti-mouse IgG; mean n=3
[19] = molecular target: human serum amyloid P component (SAP) (human) (UniProt P02743); assay: IRMA; SAP non-covalently immobilised; antibody at 0.001 µg/ml; radiolabelled sheep polyvalent anti-mouse IgG

human serum amyloid P component (SAP) (human), sequence (P02743 20-223): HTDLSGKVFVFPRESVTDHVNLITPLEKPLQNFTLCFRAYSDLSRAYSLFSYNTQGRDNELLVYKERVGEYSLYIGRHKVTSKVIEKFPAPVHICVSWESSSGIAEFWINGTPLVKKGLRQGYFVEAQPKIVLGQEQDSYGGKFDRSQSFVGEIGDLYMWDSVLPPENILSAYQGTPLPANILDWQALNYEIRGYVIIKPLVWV
human SAP complexed with CPHPC and covalently cross linked with BS3 (human), sequence (P02743 20-223, one chain of several): as the sequence (P02743 20-223) above

Substance: SAP-5 (antibody)
- Activity bound (d.p.m.) [1]: 12100 d.p.m.
- Activity bound (d.p.m.) [2]: 15400 d.p.m.
- Activity bound (d.p.m.) [3]: 16200 d.p.m.
- Activity bound (d.p.m.) [4]: 589 d.p.m.
- Activity bound (d.p.m.) [5]: 1980 d.p.m.
- Activity bound (d.p.m.) [6]: 94 d.p.m.
- Activity bound (d.p.m.) [7]: 2200 d.p.m.
- Activity bound (d.p.m.) [8]: 1650 d.p.m.
- Activity bound (d.p.m.) [9]: 6160 d.p.m.
- Activity bound (d.p.m.) [10]: 902 d.p.m.
- koff [11]: 6e-05 s⁻¹
- kon [11]: 20000 M⁻¹ s⁻¹
- Activity bound (d.p.m.) [12]: 4050 d.p.m.
- Activity bound (d.p.m.) [13]: 4560 d.p.m.
- Activity bound (d.p.m.) [14]: 7120 d.p.m.
- Activity bound (d.p.m.) [15]: 222 d.p.m.
- Activity bound (d.p.m.) [16]: 9310 d.p.m.
- Activity bound (d.p.m.) [17]: 5580 d.p.m.
- Activity bound (d.p.m.) [18]: 5140 d.p.m.
- Activity bound (d.p.m.) [19]: 195 d.p.m.
